Here are results for one molecule from publication doi:10.1101/2022.09.25.509440 (bioRxiv, 2022).

For the assay, the target named is T1, human LRP6-ECD-Fc (human, UniProt O75581 20-1370).
T1 sequence (looked up): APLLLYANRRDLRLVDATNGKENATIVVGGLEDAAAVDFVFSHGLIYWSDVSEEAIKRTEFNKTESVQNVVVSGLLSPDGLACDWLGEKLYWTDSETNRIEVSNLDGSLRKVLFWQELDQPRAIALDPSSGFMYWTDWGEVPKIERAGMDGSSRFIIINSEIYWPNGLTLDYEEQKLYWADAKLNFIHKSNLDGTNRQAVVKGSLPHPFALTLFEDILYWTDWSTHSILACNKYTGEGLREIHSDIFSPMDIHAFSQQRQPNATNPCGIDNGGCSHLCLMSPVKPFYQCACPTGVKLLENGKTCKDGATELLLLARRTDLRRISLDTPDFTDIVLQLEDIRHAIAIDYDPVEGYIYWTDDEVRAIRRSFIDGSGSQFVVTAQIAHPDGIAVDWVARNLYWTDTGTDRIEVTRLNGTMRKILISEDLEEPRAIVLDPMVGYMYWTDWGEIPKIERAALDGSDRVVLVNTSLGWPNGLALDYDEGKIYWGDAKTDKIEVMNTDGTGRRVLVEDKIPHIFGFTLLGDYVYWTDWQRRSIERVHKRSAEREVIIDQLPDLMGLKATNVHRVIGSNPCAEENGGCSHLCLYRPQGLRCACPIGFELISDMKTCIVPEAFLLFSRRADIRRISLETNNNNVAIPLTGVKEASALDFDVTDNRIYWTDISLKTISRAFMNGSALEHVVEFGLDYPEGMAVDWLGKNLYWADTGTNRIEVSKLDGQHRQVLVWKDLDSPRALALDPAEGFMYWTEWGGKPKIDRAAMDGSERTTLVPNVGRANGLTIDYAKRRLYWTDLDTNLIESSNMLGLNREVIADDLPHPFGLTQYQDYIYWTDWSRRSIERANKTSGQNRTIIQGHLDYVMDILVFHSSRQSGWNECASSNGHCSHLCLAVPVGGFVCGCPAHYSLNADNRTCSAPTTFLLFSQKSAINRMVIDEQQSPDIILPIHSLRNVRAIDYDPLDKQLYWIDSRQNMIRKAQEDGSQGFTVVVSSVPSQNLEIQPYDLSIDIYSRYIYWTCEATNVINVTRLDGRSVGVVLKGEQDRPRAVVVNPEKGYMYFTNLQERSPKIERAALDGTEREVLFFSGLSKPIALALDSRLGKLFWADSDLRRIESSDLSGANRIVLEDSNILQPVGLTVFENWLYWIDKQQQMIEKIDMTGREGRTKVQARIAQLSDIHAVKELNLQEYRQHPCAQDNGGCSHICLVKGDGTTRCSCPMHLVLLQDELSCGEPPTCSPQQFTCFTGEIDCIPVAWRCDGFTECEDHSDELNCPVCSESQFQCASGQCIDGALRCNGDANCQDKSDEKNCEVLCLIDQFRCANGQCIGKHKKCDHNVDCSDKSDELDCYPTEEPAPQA
As to the kind of experiment: BLI.

B1: recombinant human Wnt3a (ligand, UniProt P56704 19-352, looked up)
chain: SYPIWWSLAVGPQYSSLGSQPILCASIPGLVPKQLRFCRNYVEIMPSVAEGIKIGIQECQHQFRGRRWNCTTVHDSLAIFGPVLDKATRESAFVHAIASAGVAFAVTRSCAEGTAAICGCSSRHQGSPGKGWKWGGCSEDIEFGGMVSREFADARENRPDARSAMNRHNNEAGRQAIASHMHLKCKCHGLSGSCEVKTCWWSQPDFRAIGDFLKDKYDSASEMVVEKHRESRGWVETLRPRYTYFKVPTERDLVYYEASPNFCEPNPETGSFGTRDRTCNVSSHGIDGCDLLCCGRGHNARAERRREKCRCVFHWCCYVSCQECTRVYDVHTCK
For the molecule B1, the binding result was “binds”.
